Results taken from US8227408B2, “Leptin as an anti-amyloidogenic biologic and methods for delaying the onset and reducing Alzheimer's disease-like pathology” (Neurotez, Inc., priority 2005, dated 2012).

Tested on: BACE
Experiment: BACE activity, APP and flotillin in sucrose gradient fractions of treated SY5Y cells (fluorescence quenching assay)
Type: cell-based, human
Protocol: In panel (a), Neuro2a cells stably transfected with hyg-sa134 were treated for about 2 h or about 5 h with about 100 ng/ml leptin, Ob (black); about 125 mg/ml cyclodextrin, CDX (striped gray); about 5 mg/ml cholesterol, Ch (pale gray); and leptin plus cholesterol, Ob+Ch (medium gray). Media were collected and assayed for total Aβ by ELISAs (Figueiredo-Pereira et al., J Neurochem. 72:1417-22 (1999)). […] Water soluble cholesterol (Sigma-Aldrich, Mo.) is a solution made of cholesterol balanced with CDX (40 mg cholesterol per gr CDX). […] Extracts prepared from harvested cells were analysed by SDS-PAGE and Western blotting using an antibody directed against the C-terminal fraction of APP (C-APP, lanes 1-4) or actin (top lanes 5-8) or full-length APP (bottom lanes 5-8). […] Fractions collected from the bottom of the gradient were analysed by SDS-PAGE and Western blotting for the detection of APP and flotillin (marker for lipid rafts). […] In panel (e), fractions collected as above were assayed for β-secretase activity using a fluorescence-quenching assay (QTL Biosystems, NM). The results are expressed as the percent distribution of BACE activity within the gradient derived from cell cultures in the absence (black) or presence (gray) of leptin in the medium. […]

B1: Leptin: peptide hormone controlling adaptive metabolic mechanisms to energy availability; leptin (Harbor-UCLA) in vitro, recombinant murine leptin in mice (protein, UniProt P41160 22-167, looked up)
Leptin: VPIQKVQDDTKTLIKTIVTRINDISHTQSVSAKQRVTGLDFIPGLHPILSLSKMDQTLAVYQQVLTSLPSQNVLQIANDLENLRDLLHLLAFSKSCSLPQTSGLQKPESLDGVLEASLYSTEVVALSRLQGSLQDILQQLDVSPEC
With B1 the “activity of BACE in the low density fractions” value (about 400 ng/ml leptin, about 5 h, sucrose gradient fractions) was “almost absent” and the “flotillin migration / elution position on sucrose gradient” value (compared to controls) was “migrated at heavier subcellular fractions”.
